± gives the uncertainty stated by the source.
Assay: protein stability index of a GFP-peptide fusion (yeast GPS) (PSI 1-4); higher = more stable; sorted into four equal gates, so the index is relative within each strain
Outline: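 The protein stability index combines read frequencies across sorting gates, each weighted by its gate number and then summed. To obtain those frequencies, a pooled yeast library of GFP fusions to tiled 17-residue yeast protein peptides, on a plasmid also expressing Cherry, was grown to mid-log phase in leucine-free medium. The cells were sorted into four equal gates by GFP/Cherry ratio before plasmid amplification by PCR and Illumina sequencing.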

Sequence	protein stability index (doa10∆)	protein stability index (pdr5∆)	protein stability index (san1∆)	protein stability index (ubr1∆)
DQIEKLREVVELPLLSP [RPT1]	2.76 ± 0.075	3 ± 0.054	2.87 ± 0.061	2.94 ± 0.073
GTLDKNSQTVSGTPITQ [SNF2]	2.83 ± 0.055	2.71 ± 0.055	2.69 ± 0.052	2.65 ± 0.044
LEIRNKICSSEMINEQK [RGR1]	3.02 ± 0.11	2.91 ± 0.14	3.01 ± 0.15	2.9 ± 0.12
LESDVNIALVSKLRNNI [SRP54]	2.31 ± 0.065	2.63 ± 0.056	2.74 ± 0.052	2.98 ± 0.067
QQGQNMSEQQWREQLRN [ROX3]	2.55 ± 0.071	2.48 ± 0.055	2.42 ± 0.086	2.23 ± 0.032
LQPIFKGEEAKLDSKKT [SSN3]	3.52 ± 0.2	3.11 ± 0.23	3.54 ± 0.17	
IRSERFKVARELKTEAA [ITC1]		2.25 ± 0.25		
LSKVSLLTPDIGAVYSG [PRE8]	1.68 ± 0.055	1.99 ± 0.073	1.73 ± 0.09	2.07 ± 0.071
CESCSTVLCTPTGGKAK [RPS27B]	1.94 ± 0.068	2.5 ± 0.056	2.07 ± 0.081	2.51 ± 0.053
QMAVHIATDGGRICRPL [RET1]	2.66 ± 0.094	3.04 ± 0.085	2.78 ± 0.1	2.8 ± 0.054
AATMTSAPPPALPHVEI [RGR1]	2.52 ± 0.072	2.83 ± 0.083	2.49 ± 0.079	2.3 ± 0.055
DLKLPPMDAYLKLNHII [SNU114]	3.09 ± 0.28	2.94 ± 0.18	2.52 ± 0.099	2.68 ± 0.12
YNIELPLPPRIDPSVTM [RPT1]	2.44 ± 0.21	2.73 ± 0.088	2.47 ± 0.12	1.95 ± 0.083
DHKRFIVFHNEFSEHTF [DIS3]	2.55 ± 0.042	2.92 ± 0.048	2.85 ± 0.046	3.02 ± 0.038
VITPHFITNVQSISQNS [SWI1]	1.85 ± 0.11	2.45 ± 0.11	2.2 ± 0.14	1.73 ± 0.073
LAGKRGPKSGSTMGTPT [PGD1]	3.35 ± 0.061	2.95 ± 0.05	2.6 ± 0.096	3.19 ± 0.046
TESLRVENSVLIEKVDD [YIL149C/MLP2]	2.48 ± 0.17	2.98 ± 0.22	2.63 ± 0.14	2.79 ± 0.074
FPSIPLPINGPITNKER [RPC31]	2.23 ± 0.058	2.37 ± 0.064	2.17 ± 0.082	2.56 ± 0.11
MAKVEVNLAAIPLGKNV [RIP1]	3.33 ± 0.3			

Sequence	protein stability index (doa10∆)	protein stability index (pdr5∆)	protein stability index (san1∆)	protein stability index (ubr1∆)
ARIVRVRSREDRKNRAP [RPS26A]	3.55 ± 0.23		3.27 ± 0.26	2.87 ± 0.099
KRRKLDLNNAVQKRDEV [SMC4]	3.41 ± 0.26	2.89 ± 0.12	2.96 ± 0.068	2.96 ± 0.079
MARRPARCYRYQKNKPY [RPL10]	2.17 ± 0.092	2.13 ± 0.11	2.32 ± 0.092	2.4 ± 0.1
YKRQKSSLLYTYDENDD [ESC2]	1.25 ± 0.059	1.42 ± 0.07	1.17 ± 0.11	1.21 ± 0.06
LNDHIDDFEVNVASLVR [GRR1]	3.29 ± 0.087	3.26 ± 0.13	2.31 ± 0.25	3.08 ± 0.087
IHTQLSEIKQQINKAQI [YJL039C/NUP192]	2.73 ± 0.12	2.8 ± 0.18	2.81 ± 0.13	3.12 ± 0.2
VLEDVYRCFAQLELRQL [RRI2]	2.15 ± 0.25	2.61 ± 0.17	2.5 ± 0.12	2.67 ± 0.17
AHMANPLLRKVVDRESD [PRE4]			1.13 ± 0.22	
TNFEILNEMLNTRKNMS [DIS3]	2.97 ± 0.059	3.07 ± 0.091	3.06 ± 0.054	3.09 ± 0.041
SSFGSESLTFNEFQLQW [SWI1]	2.98 ± 0.066	2.84 ± 0.056	2.56 ± 0.054	3.02 ± 0.046
IYQIHIPYAAKLLFQEL [RPB2]	2.64 ± 0.12	1.98 ± 0.12		2.88 ± 0.077
TPIIFIGTGEHIHDLEK [SRP54]	1.94 ± 0.071	2.42 ± 0.063	2.76 ± 0.068	2.45 ± 0.056
LKKVQQQQQAAALANAN [SWI1]	1.83 ± 0.063	2.45 ± 0.081	2.1 ± 0.073	1.78 ± 0.064
VDSLDPFSEGVTFSVMP [SMC4]	2.92 ± 0.086	2.39 ± 0.065	2.2 ± 0.13	3.1 ± 0.072
PSANNSSSIKSTGPTGA [RRP4]	3.32 ± 0.038	3.28 ± 0.043	3.349 ± 0.029	3.348 ± 0.032
EKESVEKQHENAVLELG [SMC3]	3.36 ± 0.2	3.52 ± 0.13	2.9 ± 0.1	3.42 ± 0.073
ITVVPVVAAAEDDDNEQ [QCR6]	1.61 ± 0.068	2.04 ± 0.064	1.72 ± 0.12	1.89 ± 0.036
NIYDQLRNKLIESNKLA [RRP6]	2.34 ± 0.073	2.45 ± 0.084	1.9 ± 0.09	2.22 ± 0.073
MSGSFWTSTQRHHWQYT [SSN8]	2.07 ± 0.14	2.27 ± 0.15	1.97 ± 0.13	2.23 ± 0.099

Sequence	protein stability index (doa10∆)	protein stability index (pdr5∆)	protein stability index (san1∆)	protein stability index (ubr1∆)
MFNDLNSMDISMFSGLD [MED2]	3.18 ± 0.06	3.26 ± 0.054	3.15 ± 0.037	3.12 ± 0.052
MEKDKLKNLLRSNFRVN [SNU114]	1.99 ± 0.087	2.45 ± 0.08	2.46 ± 0.13	2.65 ± 0.087
IQRTRERKKSIGSQRGR [DSN1]	2.94 ± 0.077	2.5 ± 0.063	2.56 ± 0.061	2.91 ± 0.069
ELLEERFQDSNPYVRTK [YCS4]	1.48 ± 0.037	1.76 ± 0.11	2.82 ± 0.076	2.8 ± 0.096
NDFNDLNIDWSTTGDNG [MED2]	2.84 ± 0.05	2.86 ± 0.051	2.84 ± 0.046	2.73 ± 0.042
HAYRDVLAQYHEAKERI [SNF6]	2.98 ± 0.066	3.43 ± 0.071	3.09 ± 0.059	3.31 ± 0.051
FNTEAEQTVSAVTEATS [RGR1]	2.67 ± 0.28	3.41 ± 0.15		
FAKEHNATVNLAMEAIL [YJR042W/NUP85]	2.93 ± 0.094	2.66 ± 0.1	2.71 ± 0.098	2.63 ± 0.092
KAKRAKTGSASTVKGSV [TAF14]	2.9 ± 0.11	2.66 ± 0.24	2.77 ± 0.16	3.16 ± 0.083
KYPARRIHTNDNDIMNL [SSN3]	2.83 ± 0.074	3.06 ± 0.072	2.98 ± 0.077	2.9 ± 0.059
LQQGMRGAWGKPHGLAA [RPL10]	2.47 ± 0.1	2.57 ± 0.097	2.24 ± 0.23	2.52 ± 0.069
CKVVAEMIRGRSPEEIR [SKP1]		1.95 ± 0.15	2.21 ± 0.29	1.49 ± 0.11
DEEMTISQKLHDSILHS [RRP43]	2.7 ± 0.052	2.74 ± 0.035	2.82 ± 0.03	2.92 ± 0.035
WAVKEGPLAEEPIYGVQ [SNU114]	2.8 ± 0.067	2.53 ± 0.079	2.76 ± 0.061	1.8 ± 0.047
GCVNSLISGPRNQILVS [YMR129W/POM152]		1.36 ± 0.22		
LSSAGKNSSVSSLMNGL [SRB5]		1.24 ± 0.11		
GRAGVPMEVMGLMLGEF [RPN11]	1.25 ± 0.17	2.12 ± 0.26	1.69 ± 0.18	
WSFYNGNVLINDTLPDE [SNU114]		2.23 ± 0.16		1.7 ± 0.16

From the supplement of paper PMC9732359
